T1: Cynomolgus IL-13Rα1 expressed in transfected Ba/F3 cells (Cynomolgus, UniProt A0A7N9D0M5 20-425)
T1 construct: Stably transfected murine Ba/F3 cells
T1 sequence: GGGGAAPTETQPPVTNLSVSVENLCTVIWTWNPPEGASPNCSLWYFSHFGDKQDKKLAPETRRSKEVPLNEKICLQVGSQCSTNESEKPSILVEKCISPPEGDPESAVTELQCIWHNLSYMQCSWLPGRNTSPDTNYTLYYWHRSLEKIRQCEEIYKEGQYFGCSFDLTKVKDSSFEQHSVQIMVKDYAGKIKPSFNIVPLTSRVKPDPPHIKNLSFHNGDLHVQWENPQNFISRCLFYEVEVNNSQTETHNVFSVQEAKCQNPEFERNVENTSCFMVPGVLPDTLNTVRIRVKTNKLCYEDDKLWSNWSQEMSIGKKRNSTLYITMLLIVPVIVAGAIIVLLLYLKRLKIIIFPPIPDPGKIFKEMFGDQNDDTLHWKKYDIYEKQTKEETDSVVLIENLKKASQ

T2: extracellular domain of IL-13Rα1 (R&D Systems, UK) (human, UniProt P78552 22-343)
T2 construct: extracellular domain; Bought; also called recombinant human IL-13Rα1 polypeptide; immobilized extracellular domains of human IL-13Rα1
T2 sequence (looked up): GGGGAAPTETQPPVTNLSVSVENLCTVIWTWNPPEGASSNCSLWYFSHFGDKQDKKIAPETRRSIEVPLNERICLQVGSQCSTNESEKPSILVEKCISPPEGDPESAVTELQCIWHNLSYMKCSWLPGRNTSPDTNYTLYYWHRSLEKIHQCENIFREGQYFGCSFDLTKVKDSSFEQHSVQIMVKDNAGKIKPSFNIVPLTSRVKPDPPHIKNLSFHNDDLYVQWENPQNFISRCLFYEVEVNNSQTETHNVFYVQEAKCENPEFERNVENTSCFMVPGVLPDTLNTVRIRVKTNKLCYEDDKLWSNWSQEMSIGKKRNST

T3: hIL-13Rα1:hFc chimeric protein (R&D Systems, UK) (human, UniProt P78552 22-343)
T3 construct: extracellular domain; Bought; also called chimeric hIL-13Rα1:hFc; not shown: human Fc (hFc) of the bought chimera
T3 sequence (looked up): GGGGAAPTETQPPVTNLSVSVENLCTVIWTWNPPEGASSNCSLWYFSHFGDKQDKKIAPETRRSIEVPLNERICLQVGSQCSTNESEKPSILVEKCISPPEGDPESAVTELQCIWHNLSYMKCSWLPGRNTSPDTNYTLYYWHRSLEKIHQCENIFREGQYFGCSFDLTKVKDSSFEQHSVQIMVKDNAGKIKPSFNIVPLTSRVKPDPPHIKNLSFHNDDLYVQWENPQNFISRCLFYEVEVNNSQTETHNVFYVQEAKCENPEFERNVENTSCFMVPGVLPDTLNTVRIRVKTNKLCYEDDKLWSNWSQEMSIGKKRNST


Key:
[1] = molecular target: T1, Cynomolgus IL-13Rα1 expressed in …; assay: FACS, transfected against parental Ba/F3 cells, 10 µg/ml
Method: (§1) The gene coding for IL-13Rα1 was isolated by RT-PCR from Cynomolgus tissue and transfected into in the murine cell line Ba/F3. In order to test whether the HuMabs crossreact with Cynomolgus IL-13Rα1, the stably transfected Ba/F3 cells as well as the parental Ba/F3 cells were incubated with 10 μg/ml of HuMab and control antibodies. As positive control, a polyclonal goat-anti hIL-13Rα1 (R&D Systems) was used. Negative controls included were: a human IgG1 myeloma protein (Nordic) and normal goat serum. Bound antibodies were detected by FACS analysis using an antibody directed against human IgG conjugated with FITC to detect HuMabs and an antibody directed against goat IgG conjugated with FITC to detect goat antibodies. Mean fluorescence intensities (MFI) were compared for the individual antibodies tested on the transfected Ba/F3 line versus the parental line.
(§2) All HuMabs of the invention were able to bind to Cynomolgus IL-13Rα1 expressed in transfected Ba/F3 cells. As expected from the close homology between human and Cynomolgus IL-13Rα1, the polyclonal AF152 antibody also bound to the Cynomolgus IL-13Rα1.

[2] = molecular target: T2, extracellular domain of IL-13Rα1 (R&D …); assay: ELISA, immobilized extracellular domain of human IL-13Rα1, detection with anti-human kappa-POD, OD 405nm-492nm
Method: To determine the ability of the antibodies of the invention to bind to recombinant IL-13Rα1, the extracellular domain of IL-13Rα1 (R&D Systems, UK) was dissolved in PBS (1 μg/ml) and allowed to adsorb to microtiter plates (NUNC Maxisorb) by incubation over night at 4° C. After washing the plates with washing buffer (WB=0.9% NaCl; 0.1% Tween® 20) unspecific binding sites were blocked by addition of 100 μl incubation buffer (IB=PBS with 1% crotein C and 0.1% Tween® 20) and incubation for 30 min at room-temperature (RT). Then, serially diluted HuMab and control antibodies (100 μl/well; dilutions in IB) were added and incubated for 1 hour at RT. The plates were again washed, and bound human antibodies were detected by incubation with peroxidase-conjugated rabbit anti-human kappa (DAKO, Denmark) in a final dilution of 1:500 in IB. Polyclonal goat anti-hIL-13Rα1 antibodies were detected with peroxidase-conjugated polyclonal donkey anti-goat IgG (Santa Cruz; dilution 1:1000 in IB). After incubation for 1 h at RT and a subsequent washing step, the plates were developed with ready-to-use ABTS® solution (Roche Diagnostics GmbH) at RT in the dark. Absorbance was measured at 405 nm after absorbance of the highest concentration reached a sufficient OD.

[3] = molecular target: T1, Cynomolgus IL-13Rα1 expressed in …; assay: FACS on Ba/F3 cells transfected with Cynomolgus IL-13Rα1, 10 µg/ml
Method: as §1, §2

[4] = molecular target: T3, hIL-13Rα1:hFc chimeric protein (R&D …); assay: competition ELISA: hIL-13Rα1:hFc coated, antibody first, then IL-13 plus IL-4Rα; bound IL-13 detected with biotinylated anti-IL-13
Method: Microtiter plates were coated with 100 μl hIL-13Rα1:hFc chimeric protein (R&D Systems, UK) in PBS at 3 μg/ml at 4° C. overnight on a shaker. After washing the plates with WB, serially diluted HuMab and control antibodies (100 μl/well; dilutions in IB) were added and incubated for 30 min at RT. The plates were again washed, and then a mixture of IL-13 (R&D Systems, UK; 0.5 μg/ml; dilution with IB) and IL-4Rα (R&D Systems, UK; 0.75 μg/ml; dilution with IB) were added and incubated for 1 h at RT. After washing the plates 100 μl biotinylated anti IL-13 antibody (BAF213; R&D Systems, UK) in a concentration of 0.4 μg/ml was added and incubated for 1 h at RT. After washing the plates, bound IL-13 was detected by peroxidase-coupled streptavidin (Roche Diagnostics GmbH, DE) in a dilution of 1:5000 in IB (incubation period 1 h at RT). Finally, plates were washed and developed with ready-to-use ABTS® solution (Roche Diagnostics GmbH, DE) at room temperature (RT) in the dark. Absorbance was measured at 405 nm after 45 to 60 minutes.

Row | Binder | Fold Increase in MFI in the presence of Cyno_IL-13Rα1 [1] | EC50 (read off the curve) [2] | MFI Ba/F3_Cyno_IL-13Rα1 [3] | IC50 (read off the curve) [4]
1 | HuMab LC5002-005 (antibody, V domains shown, Only the variable domains are tied to this antibody; also called hu-MAB<h-IL-13Ralpha>LC.5002-005 (DSM ACC2711)) VH: EVQVLDSGGGLVQPGGSLRLSCTASGFTFRLYTMSWVRQTPGRGLEWVSGISGSGLSTYFADSVKGRFTISRDNSKNTVYLQMNSLRAEDTAVYYCAKEGDWIYFDSWGQGTLVIVSS VL: DIQMTQSPSSLSASVGDRVTITCRASQGISSWLAWYQQKPEKAPKSLIYAASSLQSGVPSRFSGSGSGTDFTLTISSLQPEDFATYYCQQYNSHPPTFGQGTKLEIK | 86.7 | ~1 nM | 102 MFI | –
2 | HuMab LC5002-002 (antibody, human IgG1, V domains shown, Human IgG1 kappa from a HuMab mouse hybridoma; Only the variable domains are tied to this antibody; also called hu-MAB<h-IL-13R alpha>LC.5002-002 (DSM ACC2709)) VH: EVQLLESGGGLVQPGGSLRLSCAASGFTFNIYAMNWVRQAPGKGLEWVSVISGRGITTYYADSVKGRFTISRDNSKNTLYLQMNSLRADDTAVYYCAKGSSSWTDFDYWGQGTLVTVSS VL: DIQMTQSPSSLSASVGDRVTITCRASQGISRWVAWYQQKPEKAPKSLIYAASSLQSGVPSRFSGSGSGTDFTLTISSLQPEDFATYYCQQYNSYPWTFGQGTKVEIK | 79.8 | ~1 nM | 83.7 MFI | 1 to 2.5 nM
3 | HuMab LC5002-003 (antibody, V domains shown, Human IgG1 kappa from a HuMab mouse hybridoma; Only the variable domains are tied to this antibody; also called LC50002-003; hu-MAB<h-IL-13Ralpha>LC.5002-003 (DSM ACC2710)) VH: EVQLLESGGDLIQPGGSLRLSCAASGFTFNIYAMNWVRQAPGKGLEWVSVISGRGITTYYADSVKGRFTISRDNSKNTLYLQMDSLRAEDTAVYYCAKGSSYWTDFDYWGQGTLVTVSS VL: DIQMTQSPSSLSASVGDRVTITCRASQGISSWLAWYQQKPEKAPKSLIYAASSLQSGVPSRFSGSGSGTDFTLTISSLQPEDFATYYCQQYNSYPWTFGQGTKVEIK | 79 | 1 to 2 nM | 82.4 MFI | ~2 nM
4 | HuMab LC5002-007 (antibody, human IgG1, V domains shown, Human IgG1 kappa from a HuMab mouse hybridoma; Only the variable domains are tied to this antibody; also called hu-MAB<h-IL-13R alpha>LC.5002-007 (DSM ACC2712)) VH: QVQLVQSGAEVKKPGSSVKVSCKVSGGTFSSYAFSWVRQAPGQGLEWMGRIIPILGRTNYAQKFQGRVTITADKSTSTAYMEVSSLRSEDTAVYYCAREGETLDYFYYGMDVWGQGTTVTVSS VL: EIVLTQSPGTLSLSPGERATLSCRASQSVSSSYLAWYQQKPGQAPRLLIYGASSRAIGIPDRFSGSGSGTDFTLTISRLEPEDFAVYYCQHYGSSLTFGGGTKVEIK | 14.9 | ~0.8 nM | 19 MFI | ~1 nM
